From patent US10975365B2, “Di-enzymatic chimeric endolysin” (Government of the United States of America, as represented …, priority 2018, dated 2021) come the findings set out here.

Where only a bound is given, the exact number is not on record here.

Series [1] concerns eight serotypes of pneumococci. Briefly: MIC test on pneumococcal strains. The class given is cell-based, Streptococcus pneumoniae. The protocol:
The MICs of enzymes and antibiotics were determined in a 96-well titration plate in triplicate. Briefly, the overnight pneumococcal culture was diluted with 2×THY to obtain a final concentration of 1×10^7 CFU/ml, and other bacterial species were diluted with 2-folded medium to 1×10^5 CFU/ml. 100 μl of the diluted bacterial culture was subjected into each well, mixing with the serial 2-fold diluted 100 μl of enzymes/antibiotics. PBS buffer was used as a negative control. The plates were sealed via parafilm and statically incubated at 37° C. incubator for 24 h. The MIC was defined as the lowest concentration of treatment that inhibited visible growth of the bacterium.
To further evaluate the activity of ClyX-1, MIC tests were performed against eight serotypes of pneumococci including penicillin-resistant strains and capsule-free mutant with information shown in FIG. 13. Penicillin and levofloxacin were tested as standards to benchmark the antimicrobial activity. All of the strains were sensitive to levofloxacin (MIC<=2). Only the two penicillin-resistant strains indicated MIC larger than 2 μg/ml (resistance). […] The MICs of ClyX-1 were lower than that of Cpl-1 and even levofloxacin, ranging from 0.13 μg/ml to 0.5 μg/ml.

A further series has as its system S. pneumoniae NS26. Briefly: Mouse systemic infection model, survival. The series is classed as in vivo, female BALB/c mice. How it is done: (§1) (a) Different concentrations of ClyX-1 and Cpl-1 were mixed with 10^6 overnight S. pneumoniae D39 culture for 5 min. The cells were then serial diluted and plated on the THY plates. Log killing was determined through the comparisons of PBS treatment and the enzymes treatment. (b) Female BALB/c mice were injected intraperitoneally with pneumococcus strain S. pneumoniae NS26 at a single dose at 2.95×10^7 colony forming units (CFU) per mouse. One hour after the infection, mice were intraperitoneally received a single dose of different treatments in different amount per mouse. The lines represent the percentage survival of mice for 10 days. The data was plotted as Kaplan-Meier survival curves and analyzed via the Log-rank (Mantel-Cox) test (*P<0.001; **P<0.0001);
With regard to in vivo mouse infection models, mouse infection experiments were carried out in an ABSL-2 lab. In the mouse systemic infection model, female BALB/c mice (6-8 weeks old) were injected intraperitoneally with S. pneumoniae NS26 at a single dose of 2.95×10^7 CFU/mouse and divided randomly into multiple groups. Bacterial burden in blood and organs in mice 1 h post-infected were confirmed by plating on THY agar as described previously. One hour post-infection, these groups intraperitoneally received a single dose of 20, 40, or 80 μg/mouse of […] (n=10); 20, 40, or 80 μg/mouse of Cpl-1 (n=10); 100 μg/mouse of penicillin G (n=10); or an equal volume of PBS buffer (n=10). The survival data for all groups were recorded for 10 days.
To validate the in vitro bactericidal activity of ClyX-1, we applied a mouse systemic infection model to test the in vivo efficacy of the enzyme. Mice were challenged to a 2-days lethal-dose of 2.95×10^7 CFU. One hour after infection, the mice were intraperitoneally injected a single dose containing different amount of either ClyX-1 or Cpl-1 ranging from 20 μg-80 μg. The antibiotics control was 100 μg/mouse of penicillin G, and the negative control was as PBS, pH7.4 buffer. The mice were then observed and recorded for the survival data. All the mice treated with PBS buffer died within the first 2 days.

The test system of series [2] is five strains of stationary phase S. pneumoniae. The experiment in a line: Bactericidal activity of ClyX-3 on pneumococcal strains. The series is classed as cell-based, Streptococcus pneumoniae. To be noted: 5 μg/ml; 5 min. How it is done:
(a) Bactericidal effects of ClyX-3 against five strains of stationary phase S. pneumoniae. 5 μg/ml of enzymes were mixed with 10^6 bacterial cultures for 5 min. Log killing was determined through the comparisons of PBS treatment and enzymes treatment. (b) Bactericidal effects of ClyX-4 against stationary phase streptococci. 50 μg/ml of enzymes were mixed with 10^6 bacterial culture for 1 h. Log killing was determined through the comparisons of PBS treatment and enzymes treatment;
(§2) With regard to bactericidal assay, bacterial cells were diluted to 2× rich media to generate a final concentration of 5.0×10^6 CFU/ml. 100 μl of the diluted bacterial culture was added into a 96-well titration plate in triplicate and mixed with 100 μl of sterile-filtered enzymes. Plates were sealed and incubated at 37° C. for 5-60 min. After the incubation, bacterial cells were serially diluted in 10-fold increments into sterile PBS and plated on THY/TSB agar. Log killing was calculated as follows: −log[(CFU under enzyme treatment)/(CFU under PBS treatment)].
With regard to applying the design rationale to add a C′ terminal EAD such that two EADs are disposed at each side of the CBD, the process was used to engineer endolysins for increased activity. […]

In the next series the test system is S. pneumoniae D39. The experiment in a line: Bactericidal assay on D39, ClyX-1 compared with Cpl-1 and PlyCA. The series is classed as cell-based, Streptococcus pneumoniae. How it is done:
as §1, §2
Bactericidal assays were repeated using the three lysins at different concentrations (0.5 μg/ml to 50 μg/ml) on a different strain, D39 (FIG. 10a).

Series [3] deals with S. pneumoniae ATCC TIGR 4. The experiment in a line: Bacteriolytic (turbidity reduction) assay. The series is classed as cell-based, Streptococcus pneumoniae. To be noted: 5 μg/ml; OD from 1.0 to 0.2 within the first 2 min; overnight culture. How it is done:
In a bacteriolytic assay, bacterial culture (stationary phase) was harvested at 5,000 for 10 min at 4° C., washed twice and resuspended in PBS buffer, pH7.4. In a 96-well titration plate, the resuspended bacterial solution was mixed 1:1 (u/u) with endolysin to a final OD600 between 0.8 to 1.0. In each run, PBS was included as a negative control. Spectrophotometric readings (OD600) were taken every 15 s over 10 min on a spectrophotometer. Vmax was calculated as the slope of the linear portion and represented the endolysins activity. All experiments were conducted in triplicate to get the standard deviation.
Bacteriolytic capacity of ClyX-1 and ClyX-1 linkers were analyzed via the turbidity reduction assay against the overnight culture of S. pneumoniae ATCC TIGR 4. Both enzymes-induced lysis of the bacterial peptidoglycan caused a decrease in OD from 1.0 to 0.2 (80%) within the first 2 min of the turbidity assay at 5 μg/ml as shown in FIG. 9a. The linkers were the only difference between these two enzymes, and the unstructured region of PlyCA GyH, PlyCA CHAP, and Cpl-1 CBD provide optimal flexibility for enzymatical activity. High lytic activity correlated with data for bacterial survival after chimera treatment. ClyX-1 sterilized cultures for 5 min, causing a decrease in TIGR 4 viability of ˜6 log, at as low as 0.5 μg/ml (FIG. 9b). […]

For `C[C@H]1COc2c(N3CCN(C)CC3)c(F)cc3c(=O)c(C(=O)O)cn1c23` [levofloxacin], the MIC result in series [1] (all strains, 24 h, unit not given) is recorded as “<= 2”.
In turn, Penicillin yielded an MIC in series [1] (the two penicillin-resistant strains) greater than 2 mg/L.

B1: Cpl-1: parental endolysin derived from the streptococcal Cp-1 phage (protein, UniProt P15057 1-339, looked up)
Lysozyme: MVKKNDLFVDVSSHNGYDITGILEQMGTTNTIIKISESTTYLNPCLSAQVEQSNPIGFYHFARFGGDVAEAEREAQFFLDNVPMQVKYLVLDYEDDPSGDAQANTNACLRFMQMIADAGYKPIYYSYKPFTHDNVDYQQILAQFPNSLWIAGYGLNDGTANFEYFPSMDGIRWWQYSSNPFDKNIVLLDDEEDDKPKTAGTWKQDSKGWWFRRNNGSFPYNKWEKIGGVWYYFDSKGYCLTSEWLKDNEKWYYLKDNGAMATGWVLVGSEWYYMDDSGAMVTGWVKYKNNWYYMTNERGNMVSNEFIKSGKGWYFMNTNGELADNPSFTKEPDGLITVA
On to B1, for which, in the series with S. pneumoniae NS26 (20 μg single i.p. dose 1 h after infection), the “time within which the mice had died” value was no more than 5 days. Also, the “mice rescued (survival)” value in the series with S. pneumoniae NS26 (80 μg single i.p. dose 1 h after infection, 10 days) amounted to 20%. Also, the “log reduction of tested pneumococcal strains” value in series [2] is given as roughly 2 logs. This molecule returned a log reduction with S. pneumoniae D39 (0.5 μg/ml, 5 min) of less than 1 log. For the same molecule, in the series with S. pneumoniae D39 (within 5 min, tested 0.5 to 50 μg/ml), the “concentration at which the bacteria culture was sterilized” value was 50 µg/mL.

B2: ClyX-1 linkers: similar to ClyX-1 but with two extra native linkers in the PlyCA; Seq. ID No. 18 (protein)
chain: MSKKYTQQQYEKYLAQPANNTFGLSPQQVADWFMGQAGARPVINSYGVNASNLVSTYIPKMQEYGVSYTLFLMYTVFEGGGAGNWINHYMYDTGSNGLECLEHDLQYIHGVWETYFPPALSAPECYPATEDNAGALDRFYQSLPGRTWGDVMIPSTMAGNAWVWAYNYCVNNQGAAPLVYFGNPYDSQIDSLLAMGADPFTGGSITGDGKNPSVGTGNATVSASSECTMEEDDKPKTAGTWKQDSKGWWFRRNNGSFPYNKWEKIGGVWYYFDSKGYCLTSEWLKDNEKWYYLKDNGAMATGWVLVGSEWYYMDDSGAMVTGWVKYKNNWYYMTNERGNMVSNEFIKSGKGWYFMNTNGELADNPSFTKEPDGLITVALQQTNPNPDKPTVKSPGQNDLGSGSDRVAANLANAQAQVGKYIGDGQCYAWVGWWSARVCGYSISYSTGDPMLPLIGDGMNAHSIHLGWDWSIANTGIVNYPVGTVGRKEDLRVGAIWCATAFSGAPFYTGQYGHTGIIESWSDTTVTVLEQNILGSPVIRSTYDLNTFLSTLTGLITFK
modifications: Bacteriophage
notes: similar to ClyX-1 but with two extra native linkers in the PlyCA; ID No. 18
On to B2, for which the “decrease in OD in turbidity assay” value in series [3] came to 80%.

B3: ClyX-3: the full-length Cpl-1 with an additional C′ terminal PlyC CHAP; Seq. ID No. 21 (protein)
chain: MVKKNDLFVDVSSHNGYDITGILEQMGTTNTIIKISESTTYLNPCLSAQVEQSNPIGFYHFARFGGDVAEAEREAQFFLDNVPMQVKYLVLDYEDDPSGDAQANTNACLRFMQMIADAGYKPIYYSYKPFTHDNVDYQQILAQFPNSLWIAGYGLNDGTANFEYFPSMDGIRWWQYSSNPFDKNIVLLDDEEDDKPKTAGTWKQDSKGWWFRRNNGSFPYNKWEKIGGVWYYFDSKGYCLTSEWLKDNEKWYYLKDNGAMATGWVLVGSEWYYMDDSGAMVTGWVKYKNNWYYMTNERGNMVSNEFIKSGKGWYFMNTNGELADNPSFTKEPDGLITVAGSDRVAANLANAQAQVGKYIGDGQCYAWVGWWSARVCGYSISYSTGDPMLPLIGDGMNAHSIHLGWDWSIANTGIVNYPVGTVGRKEDLRVGAIWCATAFSGAPFYTGQYGHTGIIESWSDTTVTVLEQNILGSPVIRSTYDLNTFLSTLTGLITFK
modifications: Bacteriophage
notes: the full-length Cpl-1 with an additional C′ terminal PlyC CHAP; ID No. 21
For B3, in series [1], the “activity by MIC compared with parental endolysin and ClyX-1” value is reported as “better than parental endolysins”. Also, the “log reduction of tested pneumococcal strains” value in series [2] is listed as roughly 4 logs.
